1 substance from US20010010922 can be followed below.

Series [1] relates to GST-BCL6ΔZFAla333 fusion protein.
The subject of series [2] is GST-BCL6 fusion protein (full-length BCL-6).
In series [3] the test system is GST-BCL6ΔZFAla333,343 fusion protein.

Recombinant ERK2 (New England Biolabs), sequence (P28482 2-360): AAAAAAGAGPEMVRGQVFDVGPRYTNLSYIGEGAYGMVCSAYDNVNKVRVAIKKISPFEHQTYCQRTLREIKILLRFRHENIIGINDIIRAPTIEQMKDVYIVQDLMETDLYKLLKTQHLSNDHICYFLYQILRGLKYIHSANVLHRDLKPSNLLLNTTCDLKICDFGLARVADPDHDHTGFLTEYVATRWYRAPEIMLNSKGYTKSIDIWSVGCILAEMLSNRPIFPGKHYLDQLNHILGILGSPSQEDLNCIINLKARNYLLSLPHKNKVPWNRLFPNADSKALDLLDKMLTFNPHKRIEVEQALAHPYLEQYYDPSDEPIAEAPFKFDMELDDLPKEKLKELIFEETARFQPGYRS

In the case of Recombinant ERK2 (New England Biolabs), the “phosphorylation in ERK2 kinase assay in vitro ([gamma-32P]-ATP)” value is given as “phosphorylated at much lower levels than wild type BCL-6” in series [1]; “purified recombinant MAPK (ERK-2) can phosphorylate GST-BCL-6 fusion proteins in vitro” in series [2]; “phosphorylated at much lower levels than wild type BCL-6, with BCL-6Ala333,343 displaying the lowest levels” in series [3].
